Drawing on patent publication US20210172932A1 (published 2021), this text covers Kd for four molecules.

Usually Kd stands for the equilibrium constant for the complex coming apart. Low readings indicate tighter binding, high ones weaker binding.

B1: Pembrolizumab (antibody)
chain 1: not shown
chain 2: EIVLTQSPATLSLSPGERATLSCRASKGVSTSGYSYLHWYQQKPGQAPRLLIYLASYLESGVPARFSGSGSGTDFTLTISSLEPEDFAVYYCQHSRDLPLTFGGGTKVEIKRTVAAPSVFIFPPSDEQLKSGTASVVCLLNNFYPREAKVQWKVDNALQSGNSQESVTEQDSKDSTYSLSSTLTLSKADYEKHKVYACEVTHQGLSSPVTKSFNRGEC
B2: Vedolizumab (antibody)
chain 1: not shown
chain 2: DVVMTQSPLSLPVTPGEPASISCRSSQSLAKSYGNTYLSWYLQKPGQSPQLLIYGISNRFSGVPDRFSGSGSGTDFTLKISRVEAEDVGVYYCLQGTHQPYTFGQGTKVEIKRTVAAPSVFIFPPSDEQLKSGTASVVCLLNNFYPREAKVQWKVDNALQSGNSQESVTEQDSKDSTYSLSSTLTLSKADYEKHKVYACEVTHQGLSSPVTKSFNRGEC
B3: Tocilizumab (antibody)
chain 1: not shown
chain 2: not shown
B4: Emicizumab (bispecific antibody)
chain 1: DIQMTQSPSSLSASVGDRVTITCKASRNIERQLAWYQQKPGQAPELLIYQASRKESGVPDRFSGSRYGTDFTLTISSLQPEDIATYYCQQYSDPPLTFGGGTKVEIKRTAAAPSVFIFPPSDEQLKSGTASVVCLLNNFYPREAKVQWKVDNALQSGNSQESVTEQDSKDSTYSLSSTLTLSKADYEKHKVYACEVTHQGLSSPVTKSFNRGEC
chain 2: QVQLVESGGGLVQPGGSLRLSCAASGFTFSYYDIQWVRQAPGKGLEWVSSISPSGQSTYYRREVKGRFTISRDNSKNTLYLQMNSLRAEDTAVYYCARRTGREYGGGWYFDYWGQGTLVTVSSASTKGPSVFPLAPCSRSTSESTAALGCLVKDYFPEPVTVSWNSGALTSGVHTFPAVLQSSGLYSLSSVVTVPSSSLGTQTYTCNVDHKPSNTKVDKRVESKYGPPCPPCPAPEFLGGPSVFLFPPKPKDTLMISRTPEVTCVVVDVSQEDPEVQFNWYVDGVEVHNAKTKPREEQYNSTYRVVSVLTVLHQDWLNGKEYKCKVSNKGLPSSIEKTISKAKGQPREPQVYTLPPSQKEMTKNQVSLTCLVKGFYPSDIAVEWESNGQPENNYKTTPPVLDSDGSFFLYSKLTVDKSRWQEGNVFSCSVMHEALHNRYTQKSLSLSPEQKLISEEDLNAVGQDTQEVIVVPHSLPFKVVVISAILALVVLTIISLIILIMLWQKKPR
chain 3: QVQLVQSGSELKKPGASVKVSCKASGYTFTDNNMDWVRQAPGQGLEWMGDINTRSGGSIYNEEFQDRVIMTVDKSTDTAYMELSSLRSEDTATYHCARRKSYGYYLDEWGEGTLVTVSSASTKGPSVFPLAPCSRSTSESTAALGCLVKDYFPEPVTVSWNSGALTSGVHTFPAVLQSSGLYSLSSVVTVPSSSLGTQTYTCNVDHKPSNTKVDKRVESKYGPPCPPCPAPEFLGGPSVFLFPPKPKDTLMISRTPEVTCVVVDVSQEDPEVQFNWYVDGVEVHNAKTKPREEQYNSTYRVVSVLTVLHQDWLNGKEYKCKVSNKGLPSSIEKTISKAKGQPREPQVYTLPPSQEEMTKNQVSLTCLVKGFYPSDIAVEWESNGQPENNYKTTPPVLDSDGSFFLYSKLTVDKSRWQEGNVFSCSVMHEALHNHYTQESLSLSPEQKLISEEDLNAVGQDTQEVIVVPHSLPFKVVVISAILALVVLTIISLIILIMLWQKKPR

The target of this experiment is T1, human FcRn (immobilized on nickel-nitrilotriacetic acid-coated biosensors) (human, UniProt P55899 24-297; P61769 21-119).
T1 construct: also called neonatal Fc receptor
As to the kind of experiment: BLI (Octet RED), FcRn on Ni-NTA biosensor, pH 6.0. On the technique in general: Biolayer interferometry detects binding as a change in optical thickness at a sensor tip.
B1 returned an equilibrium dissociation constant (Kd) of 290 nM.
Next, B2: 610 nM; B3: 460 nM.
Next, B4: 1230 nM.
